Source: patent publication US20190030060A1

Key:
[1] = molecular target: Semaphorin 4D secreted by HNSCC cell lines into conditioned medium (cleaved form, ~120 KDa) (human) (UniProt Q92854); test: cell-based or functional assay
[2] = molecular target: recombinant human Sema4D (sCD100) (Cat #310-29) (Peprotech, Rocky Hill, N.J.) (human) (UniProt Q92854); test: indirect ELISA, antigen coated on plate, standard curve with recombinant Sema4D, goat anti-mouse IgM-HRP

Substance | reduction in the MDSC population (CD33+ CD11b+ HLA-DR-/low) of myeloid cells cultured in HNSCC conditioned medium, flow cytometry, against isotype control mAb [1] | detection limit [2]
anti-Sema4D antibody (clone 30/CD100) (Cat #610670) (BD Biosciences PharMingen, San Diego, Calif.) | 50% | –
anti-human CD100 antibody (clone: 133-1C6; Novus Biologicals) | – | 3.1 ng/mL
